# Laboratory results published in IntAct's records for PubMed 31515488.
# B1: Mothers against decapentaplegic homolog 4 (Homo sapiens), Q13485 (parent)
# chain: MDNMSITNTPTSNDACLSIVHSLMCHRQGGESETFAKRAIESLVKKLKEKKDELDSLITAITTNGAHPSKCVTIQRTLDGRLQVAGRKGFPHVIYARLWRWPDLHKNELKHVKYCQYAFDLKCDSVCVNPYHYERVVSPGIDLSGLTLQSNAPSSMMVKDEYVHDFEGQPSLSTEGHSIQTIQHPPSNRASTETYSTPALLAPSESNATSTANFPNIPVASTSQPASILGGSHSEGLLQIASGPQPGQQQNGFTGQPATYHHNSTTTWTGSRTAPYTPNLPHHQNGHLQHHPPMPPHPGHYWPVHNELAFQPPISNHPAPEYWCSIAYFEMDVQVGETFKVPSSCPIVTVDGYVDPSGGDRFCLGQLSNVHRTEAIERARLHIGKGVQLECKGEGDVWVRCLSDHAVFVQSYYLDREAGRAPGDAVHKIYPSAYIKVFDLRQCHRQMQQQAATAQAAAAAQAAAVAGNIPGPGSVGGIAPAISLSAAAGIGVDDLRRLCILRMSFVKGWGPDYPRQSIKETPCWIEIHLHRALQLLDEVLHTMPIADPQPLD
# partner: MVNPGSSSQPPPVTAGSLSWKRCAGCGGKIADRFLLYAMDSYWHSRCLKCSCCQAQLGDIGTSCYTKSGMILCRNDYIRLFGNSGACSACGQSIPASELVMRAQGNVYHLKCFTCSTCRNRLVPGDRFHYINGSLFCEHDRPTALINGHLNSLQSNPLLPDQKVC
# B2: Amphiphysin (Homo sapiens), P49418 (parent)
# chain: MADIKTGIFAKNVQKRLNRAQEKVLQKLGKADETKDEQFEEYVQNFKRQEAEGTRLQRELRGYLAAIKGMQEASMKLTESLHEVYEPDWYGREDVKMVGEKCDVLWEDFHQKLVDGSLLTLDTYLGQFPDIKNRIAKRSRKLVDYDSARHHLEALQSSKRKDESRISKAEEEFQKAQKVFEEFNVDLQEELPSLWSRRVGFYVNTFKNVSSLEAKFHKEIAVLCHKLYEVMTKLGDQHADKAFTIQGAPSDSGPLRIAKTPSPPEEPSPLPSPTASPNHTLAPASPAPARPRSPSQTRKGPPVPPLPKVTPTKELQQENIISFFEDNFVPEISVTTPSQNEVPEVKKEETLLDLDFDPFKPEVTPAGSAGVTHSPMSQTLPWDLWTTSTDLVQPASGGSFNGFTQPQDTSLFTMQTDQSMICNLAESEQAPPTEPKAEEPLAAVTPAVGLDLGMDTRAEEPVEEAVIIPGADADAAVGTLVSAAEGAPGEEAEAEKATVPAGEGVSLEEAKIGTETTEGAESAQPEAEELEATVPQEKVIPSVVIEPASNHEEEGENEITIGAEPKETTEDAAPPGPTSETPELATEQKPIQDPQPTPSAPAMGAADQLASAREASQELPPGFLYKVETLHDFEAANSDELTLQRGDVVLVVPSDSEADQDAGWLVGVKESDWLQYRDLATYKGLFPENFTRRLD
# partner: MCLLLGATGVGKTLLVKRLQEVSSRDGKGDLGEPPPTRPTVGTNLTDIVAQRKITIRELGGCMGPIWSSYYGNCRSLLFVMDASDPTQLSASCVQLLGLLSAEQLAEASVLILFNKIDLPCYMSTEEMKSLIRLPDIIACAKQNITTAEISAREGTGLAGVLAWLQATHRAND
# B3: Syntenin-2 (Homo sapiens), Q9H190 (parent)
# chain: MSSLYPSLEDLKVDQAIQAQVRASPKMPALPVQATAISPPPVLYPNLAELENYMGLSLSSQEVQESLLQIPEGDSTAVSGPGPGQMVAPVTGYSLGVRRAEIKPGVREIHLCKDERGKTGLRLRKVDQGLFVQLVQANTPASLVGLRFGDQLLQIDGRDCAGWSSHKAHQVVKKASGDKIVVVVRDRPFQRTVTMHKDSMGHVGFVIKKGKIVSLVKGSSAARNGLLTNHYVCEVDGQNVIGLKDKKIMEILATAGNVVTLTIIPSVIYEHMVKKLPPVLLHHTMDHSIPDA
# partner: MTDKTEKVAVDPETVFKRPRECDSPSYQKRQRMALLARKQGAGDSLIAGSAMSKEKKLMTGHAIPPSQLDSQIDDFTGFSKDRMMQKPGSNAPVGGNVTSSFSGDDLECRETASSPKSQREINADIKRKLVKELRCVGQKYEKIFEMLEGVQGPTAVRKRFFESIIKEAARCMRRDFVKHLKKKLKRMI
# B4: Ubiquitin-conjugating enzyme E2 E3 (Homo sapiens), Q969T4 (parent)
# chain: MSSDRQRSDDESPSTSSGSSDADQRDPAAPEPEEQEERKPSATQQKKNTKLSSKTTAKLSTSAKRIQKELAEITLDPPPNCSAGPKGDNIYEWRSTILGPPGSVYEGGVFFLDITFSSDYPFKPPKVTFRTRIYHCNINSQGVICLDILKDNWSPALTISKVLLSICSLLTDCNPADPLVGSIATQYLTNRAEHDRIARQWTKRYAT
# partner: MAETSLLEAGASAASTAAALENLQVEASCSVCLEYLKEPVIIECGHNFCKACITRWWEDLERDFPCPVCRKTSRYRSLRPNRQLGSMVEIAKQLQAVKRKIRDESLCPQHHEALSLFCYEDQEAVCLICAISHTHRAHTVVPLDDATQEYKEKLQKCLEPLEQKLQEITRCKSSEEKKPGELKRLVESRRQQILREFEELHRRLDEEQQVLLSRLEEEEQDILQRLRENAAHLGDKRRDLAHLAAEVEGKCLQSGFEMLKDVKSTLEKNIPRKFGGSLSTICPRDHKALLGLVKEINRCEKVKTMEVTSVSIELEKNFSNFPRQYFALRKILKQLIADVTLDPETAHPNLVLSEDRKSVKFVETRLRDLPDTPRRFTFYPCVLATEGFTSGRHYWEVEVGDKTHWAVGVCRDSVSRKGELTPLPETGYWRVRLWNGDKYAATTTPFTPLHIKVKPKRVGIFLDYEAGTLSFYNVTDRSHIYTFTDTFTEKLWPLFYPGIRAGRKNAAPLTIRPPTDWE
# B5: Tuftelin-interacting protein 11 (Homo sapiens), Q9UBB9 (parent)
# chain: MSLSHLYRDGEGRIDDDDDERENFEITDWDLQNEFNPNRQRHWQTKEEATYGVWAERDSDDERPSFGGKRARDYSAPVNFISAGLKKGAAEEAELEDSDDEEKPVKQDDFPKDFGPRKLKTGGNFKPSQKGFAGGTKSFMDFGSWERHTKGIGQKLLQKMGYVPGRGLGKNAQGIINPIEAKQRKGKGAVGAYGSERTTQSMQDFPVVDSEEEAEEEFQKELSQWRKDPSGSKKKPKYSYKTVEELKAKGRISKKLTAPQKELSQVKVIDMTGREQKVYYSYSQISHKHNVPDDGLPLQSQQLPQSGKEAKAPGFALPELEHNLQLLIDLTEQEIIQNDRQLQYERDMVVNLFHELEKMTEVLDHEERVISNLSKVLEMVEECERRMQPDCSNPLTLDECARIFETLQDKYYEEYRMSDRVDLAVAIVYPLMKEYFKEWDPLKDCTYGTEIISKWKSLLENDQLLSHGGQDLSADAFHRLIWEVWMPFVRNIVTQWQPRNCDPMVDFLDSWVHIIPVWILDNILDQLIFPKLQKEVENWNPLTDTVPIHSWIHPWLPLMQARLEPLYSPIRSKLSSALQKWHPSDSSAKLILQPWKDVFTPGSWEAFMVKNIVPKLGMCLGELVINPHQQHMDAFYWVIDWEGMISVSSLVGLLEKHFFPKWLQVLCSWLSNSPNYEEITKWYLGWKSMFSDQVLAHPSVKDKFNEALDIMNRAVSSNVGAYMQPGARENIAYLTHTERRKDFQYEAMQERREAENMAQRGIGVAASSVPMNFKDLIETKAEEHNIVFMPVIGKRHEGKQLYTFGRIVIYIDRGVVFVQGEKTWVPTSLQSLIDMAK
# partner: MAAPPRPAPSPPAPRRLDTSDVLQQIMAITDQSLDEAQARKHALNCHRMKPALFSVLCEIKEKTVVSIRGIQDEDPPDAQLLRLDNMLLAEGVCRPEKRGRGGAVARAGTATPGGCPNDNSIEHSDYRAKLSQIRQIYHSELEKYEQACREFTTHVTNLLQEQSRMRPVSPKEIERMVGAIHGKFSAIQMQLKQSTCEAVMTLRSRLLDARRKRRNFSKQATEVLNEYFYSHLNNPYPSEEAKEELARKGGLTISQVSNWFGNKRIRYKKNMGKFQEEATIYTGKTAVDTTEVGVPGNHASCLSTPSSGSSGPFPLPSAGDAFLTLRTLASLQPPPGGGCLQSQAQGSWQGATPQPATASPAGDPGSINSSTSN
# Variants of: B1
# Details: with lmo4_human LMO4, P61968
row,Variant,effect of a mutation on the interaction
1,Y353S,with no effect
2,E330K,with no effect
3,N13S,with no effect
4,L533R,with no effect
5,G352R,with no effect
6,R361C,with no effect
7,V350D,disrupting interaction strength

# Variants of: B2
# Details: with arl16_human ARL16, Q0P5N6
row,Variant,effect of a mutation on the interaction
1,M376I,with no effect

# Variants of: B3
# Details: with ct453_human CT45A3, Q8NHU0
row,Variant,effect of a mutation on the interaction
1,R223C,with no effect

# Variants of: B4
# Details: with tri39_human TRIM39, Q9HCM9
row,Variant,effect of a mutation on the interaction
1,S117T,with no effect

# Variants of: B5
# Details: with pbx4_human PBX4, Q9BYU1
row,Variant,effect of a mutation on the interaction
1,R8Q,with no effect
